Test results from the supplement of paper PMC10126150.
± gives the standard deviation of the averaged measurements.

test system: ATP; assay: switch fluorescence ratio, 500 uM ATP over buffer (Cy3 cluster intensity, sum of 5 cycles each) (fold (ratio)); higher = stronger signal-on switching upon ATP binding; sequences stand for … in TCGTCGGCAGCGTCAGATGTGTATAAGAGACAGTTTTTTTTTTTTTTTTTTTTTTTTT…TC; conditions: aptamer strand: ATP DNA aptamer (quencher-CACCTGGGGGAGTATTGCGGAGGAAGG + anchor), 100 nM annealed; ATP concentration: 500 uM
Summary of the method: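 Clusters with intensities outside 100-1000 RFU were excluded. The remaining Cy3-labelled switching-strand clusters on a modified Illumina MiSeq flow-cell had been annealed to 100 nM quencher-labelled ATP aptamer and imaged in selection buffer, then after 15 min with 500 uM ATP at 22 °C, for five cycles separated by NaOH stripping and re-annealing. The fluorescence ratio, averaged per switch-domain sequence, is each cluster's summed target-cycle Cy3 intensity over its summed buffer-cycle Cy3 intensity.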
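Also: ATP exposure 15 min at 22 °C before imaging.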

| Sequence | switch fluorescence ratio |
| --- | --- |
| GGTGTGGGAT | 1.01 ± 0.057 |
| GGGTCACGTT | 0.997 ± 0.032 |
| CAGCTTTCGG | 1.03 ± 0.048 |
| CGTGCATCGA | 1.0092 ± 0.00045 |
| TTAAAAGCGA | 0.974 ± 0.023 |
| TTCGTGTTAT | 0.995 ± 0.021 |
| GGTTTAGGAA | 1 ± 0.028 |
| GTTTAGGGGC | 0.992 ± 0.023 |
| AATAAGTCCT | 1.03 ± 0.038 |
| AAAGGTCAGG | 1 ± 0.028 |
| CCAGCTGGAT | 1.015 ± 0.0088 |
| CTCCGTTTTT | 2.88 ± 0.62 |
| CGGGAGCGTC | 1.02 ± 0.01 |
| TAAGGCTCGG | 0.994 ± 0.02 |
| AAAGCGTATA | 0.987 ± 0.052 |
| AACGGCGGGG | 1 ± 0.017 |
| CGAGACTTAT | 0.996 ± 0.013 |
| AGTGTGCGGT | 0.9491 ± 0.0089 |
| ACCGAGGGGG | 1.02 ± 0.041 |
| GGGGGGCGGC | 1.01 ± 0.046 |
| GATTAAAGGC | 1.01 ± 0.039 |
| GGTTTTTTAC | 1 ± 0.062 |
| GCGATAGTGG | 0.974 ± 0.011 |
| CATGTAGCCG | 1.01 ± 0.061 |
| AATGGTCTCG | 0.9842 ± 0.006 |

| Sequence | switch fluorescence ratio |
| --- | --- |
| ATACAATAGA | 1.004 ± 0.0087 |
| CGCTGGATAG | 1.08 ± 0.051 |
| GTAATTAAGG | 0.996 ± 0.029 |
| GTTGCCTTCA | 1.14 ± 0.035 |
| GGTATTGCGT | 0.977 ± 0.042 |
| TCAAAATATA | 0.987 ± 0.061 |
| GCGCCTTAAA | 0.967 ± 0.041 |
| TCTTAGTAGT | 0.986 ± 0.028 |
| ATTTTTAAGA | 1 ± 0.012 |
| TGAGTTGGCT | 1.02 ± 0.014 |
| TTGACAGGTT | 1.15 ± 0.19 |
| TTTCATATGA | 1 ± 0.0082 |
| GCAAAAATGG | 1.02 ± 0.038 |
| TAGCTAAATT | 0.99 ± 0.012 |
| TCAAGGGCGG | 0.988 ± 0.044 |
| GAGTGTGACT | 0.97 ± 0.055 |
| TAGGCATTTT | 1 ± 0.023 |
| TTATGGCATC | 0.974 ± 0.029 |
| ATGGTGTGG | 1.02 ± 0.074 |
| TCTTTGGGTT | 1.42 ± 0.92 |
| CTCAATTATG | 0.972 ± 0.043 |
| TTGGGGGGAC | 1.03 ± 0.029 |
| GGGGGCCAGG | 1.02 ± 0.073 |
| GGGTTCTTTA | 0.997 ± 0.048 |
| GTTGGGAAGT | 0.994 ± 0.038 |

| Sequence | switch fluorescence ratio |
| --- | --- |
| CACTACGGGA | 1.05 ± 0.012 |
| GGTCGGGTAC | 0.9676 ± 0.0094 |
| CGATGGGGGG | 0.982 ± 0.06 |
| GTTGGCGTGA | 1.01 ± 0.057 |
| TTTGTGTTGG | 0.993 ± 0.027 |
| TTTCCCATTT | 1 ± 0.064 |
| TCAGGGCGCA | 1.03 ± 0.079 |
| GGCGAAATGG | 1.06 ± 0.059 |
| TTAAGTGAGG | 1.02 ± 0.016 |
| TTGTAAGTGG | 0.97 ± 0.0078 |
| AGGTAGAGTA | 0.97 ± 0.034 |
| TGCTGTACGG | 1.01 ± 0.046 |
| GTTAGCTTGA | 0.9966 ± 0.00037 |
| CTTAGTTAGT | 0.993 ± 0.01 |
| TATAGGTGCA | 0.997 ± 0.024 |
| ACAGTTGGGT | 1.002 ± 0.0047 |
| CAGAGGGGTT | 1 ± 0.021 |
| TGAATAAATT | 1.02 ± 0.015 |
| TCGGGTATAT | 1 ± 0.044 |
| GACATTTTTT | 0.978 ± 0.036 |
| TAGTATGAGG | 0.976 ± 0.021 |
| GGGAATTCGA | 1 ± 0.036 |
| CATGTTAGTC | 1.01 ± 0.012 |
| GACCTTTGAG | 1.017 ± 0.0045 |
| CAGGTCATTA | 0.9784 ± 0.0076 |

| Sequence | switch fluorescence ratio |
| --- | --- |
| GCGGTTGTCG | 1.01 ± 0.03 |
| GCCAGGGCGC | 1.02 ± 0.018 |
| GGGCTTCCGT | 1.089 ± 0.0068 |
| CGGGGCCTGG | 0.959 ± 0.021 |
| TAGTTTGGCA | 0.985 ± 0.037 |
| TCGGCACCGG | 1.02 ± 0.024 |
| TGCCACGCTC | 1.06 ± 0.029 |
| GAGTATATGT | 0.9998 ± 0.0099 |
| TGCTGGGGTT | 0.9764 ± 0.0047 |
| CGCTGGACGG | 1.023 ± 0.0098 |
| AAATCGTTGT | 0.975 ± 0.043 |
| ACTAATGTGG | 0.9959 ± 0.0068 |
| GCTGCGCCGT | 1.004 ± 0.0092 |
| AAGGTATGTG | 1.025 ± 0.0038 |
| TTTTTTGCGG | 1.08 ± 0.22 |
| TCCTAAAAGT | 1.01 ± 0.021 |
| TTTTGTGCGG | 0.98 ± 0.042 |
| AGTCGGTGGA | 1 ± 0.011 |
| TGTGTTTCAA | 1.03 ± 0.013 |
| ACGGTCCAAG | 1.02 ± 0.015 |
| GATTGCCGAT | 1 ± 0.034 |
| TCCTTGTCTT | 1.01 ± 0.016 |
| ACATTGAGGT | 1.01 ± 0.048 |
| AGAATCAGCA | 1.01 ± 0.019 |
| GAAACCGGAG | 1.567 ± 0.015 |

| Sequence | switch fluorescence ratio |
| --- | --- |
| GCTGTATATT | 0.993 ± 0.0017 |
| ATTTGAGATT | 1 ± 0.018 |
| AGTATCGAGC | 1.02 ± 0.049 |
| CTTCATGGGT | 0.962 ± 0.013 |
| CACTGTGGGT | 0.9744 ± 0.0046 |
| TTCGTTAGCG | 0.996 ± 0.022 |
| TTTGGCTTTA | 0.977 ± 0.017 |
| AGGTGGCGTG | 0.944 ± 0.022 |
| AGTTGGTAAT | 0.963 ± 0.06 |
| TTCAGGTTTC | 1 ± 0.037 |
| TTTTGTTCCC | 1 ± 0.034 |
| GGCTGTTGGT | 0.9655 ± 0.0072 |
| AGTAAAGGAA | 0.999 ± 0.014 |
| TCACTATATT | 1.08 ± 0.045 |
| TTTTTTCCG | 1.08 ± 0.1 |
| TTGTTAGTCT | 0.982 ± 0.024 |
| GCGAATCGGT | 1.01 ± 0.022 |
| TTTTAATATT | 1.05 ± 0.11 |
| GGGCCGTAGG | 0.99 ± 0.037 |
| GAACTAGGCA | 1 ± 0.012 |
| TTCAGGTGGT | 1.06 ± 0.13 |
| TTCTGCAGGG | 0.997 ± 0.043 |
| TGTAATGTGA | 1.07 ± 0.14 |
| CATGTAATTT | 0.966 ± 0.034 |
| GAGGAAATTG | 0.963 ± 0.054 |

| Sequence | switch fluorescence ratio |
| --- | --- |
| AAAGGAATTT | 1.12 ± 0.19 |
| GCGGGGTGGG | 0.9835 ± 0.0051 |
| TTTAGGTAAC | 0.9922 ± 0.0079 |
| GATTAGGCTC | 1.03 ± 0.082 |
| CGGTGTATCG | 0.983 ± 0.027 |
| AAGAGGGGCT | 1.015 ± 0.0018 |
| TGTCGCTCGT | 0.992 ± 0.043 |
| GGATACATGT | 1.003 ± 0.0031 |
| CCTCTTTTTT | 1.1 ± 0.035 |
| TGGATATAGT | 0.9937 ± 0.0038 |
| GGTTGTGAAG | 0.994 ± 0.043 |
| TGGGGGGACG | 1.03 ± 0.086 |
| TGGAGATTAG | 1.01 ± 0.054 |
| CCCGATCATA | 1.02 ± 0.017 |
| TACCTGGGTA | 0.948 ± 0.028 |
| ATGTTGTGTT | 0.9626 ± 0.0029 |
| GTGGGGTCTT | 1 ± 0.019 |
| TAATTGTAAG | 0.979 ± 0.017 |
| TTACCCTTGG | 1.17 ± 0.05 |
| GTGCCAAGGG | 1.16 ± 0.21 |
| CGTCAACTGC | 1.17 ± 0.039 |
| TGTAGGGAGG | 0.966 ± 0.053 |
| AAGAAGAAAT | 1.04 ± 0.066 |
| TCGCGCGGTG | 0.978 ± 0.021 |
| TACGCTTCAT | 1.02 ± 0.011 |

| Sequence | switch fluorescence ratio |
| --- | --- |
| TTTATGGAGA | 0.998 ± 0.015 |
| GGGTAAGGTG | 1.3 ± 0.091 |
| AGGGTTTAGT | 1 ± 0.01 |
| AAACGGGTCA | 0.983 ± 0.03 |
| GGATGGGCAA | 1.026 ± 0.0026 |
| TGGATAAGAG | 0.975 ± 0.019 |
| ATGGGGTAGC | 0.995 ± 0.012 |
| CTTCGGGTAC | 3.69 ± 0.79 |
| TTATATCTAC | 1.004 ± 0.0045 |
| CAATAAATAT | 0.97 ± 0.032 |
| ACGTAGGTTC | 1.063 ± 0.0048 |
| GTCATCGAGT | 1.008 ± 0.0039 |
| GTTGGAGGAG | 0.992 ± 0.026 |
| GGGCATGTCT | 1.03 ± 0.042 |
| ATAGTGGGTG | 0.997 ± 0.037 |
| GGAAACTTTT | 1.07 ± 0.098 |
| GAAGCGGGTG | 1.1 ± 0.1 |
| TCGGCATTAA | 1.37 ± 0.1 |
| GCGTTTTTCA | 0.9801 ± 0.0094 |
| CGTTGCGGTA | 1.04 ± 0.026 |
| TATGTTGCGT | 0.9975 ± 0.0078 |
| ATGTTGGTTG | 1.03 ± 0.04 |
| GGGATGTGCG | 1.04 ± 0.027 |
| GTTGTCGTGT | 1.01 ± 0.049 |
| TGACGAGGGG | 0.967 ± 0.031 |

| Sequence | switch fluorescence ratio |
| --- | --- |
| AGGGTAGCGG | 0.955 ± 0.012 |
| TATGACACTT | 1.03 ± 0.047 |
| TACGAGTGCG | 1.04 ± 0.06 |
| TTAAAATGTG | 1.04 ± 0.059 |
| AATTGTTGTC | 0.985 ± 0.01 |
| AGGGTATCGC | 0.9932 ± 0.0065 |
| GCTATTAGTG | 0.9892 ± 0.0051 |
| AATGTTGGTG | 0.998 ± 0.018 |
| TCGTTTTGTT | 0.975 ± 0.051 |
| GGCTCAGGGG | 1.16 ± 0.035 |
| ATGGGCACA | 0.99899 ± 0.00092 |
| GACTAGACGG | 1.13 ± 0.041 |
| TAAGAGCCGT | 1.02 ± 0.012 |
| TCTGTATCCG | 0.984 ± 0.015 |
| TGGGGGAGAT | 1.04 ± 0.1 |
| GGCGAAGGGT | 0.98 ± 0.012 |
| CCCGTAGGCT | 0.973 ± 0.014 |
| TTTATGGGGT | 1.01 ± 0.028 |
| GAGTGGACTC | 0.999 ± 0.029 |
| ATAGAGGATA | 0.9861 ± 0.0073 |
| TTTTTATGGC | 0.978 ± 0.028 |
| GGTCAAGGGG | 0.9826 ± 0.0088 |
| CGTGATTAAG | 1.09 ± 0.17 |
| TAGAAATTGG | 1.03 ± 0.03 |
| ACTGGACTGT | 1.18 ± 0.026 |
